The Kd is the concentration at which binding is half-saturated. As usually defined, the koff is the rate constant with which the complex falls apart. By kon is commonly meant the rate constant with which the complex forms.

Here are results for one molecule from patent publication US20170204158A1 (Regeneron, published 2017).

Assay [1] has as its target T1, human IL-33 (R&D Systems, # 3625-IL-010/CF) (human, UniProt O95760 112-270, biotinylated in the blocking ELISA of Example 3 (sites not given)).
T1 construct: Commercial protein; also called hIL-33; biot-hIL-33
T1 sequence (looked up): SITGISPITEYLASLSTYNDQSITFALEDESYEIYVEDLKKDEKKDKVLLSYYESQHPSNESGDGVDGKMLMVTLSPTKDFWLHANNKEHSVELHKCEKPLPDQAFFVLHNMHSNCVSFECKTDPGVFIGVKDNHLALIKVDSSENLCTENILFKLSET
The experiment in a line: SPR (Biacore T-200), 25 C; Fc fusion captured by anti-Fc antibody, IL-33 injected. The protocol: (§1) The Biacore sensor surface was first derivatized by amine coupling a polyclonal rabbit anti-mouse antibody (GE, # BR-1008-38) or with a monoclonal mouse anti-human Fc antibody (GE, # BR-1008-39) to capture IL-33 Trap and receptor proteins with a C-terminal mouse IgG2a Fc tag or a C-terminal human IgG1 Fc tag, respectively. Kinetic experiments were carried out in 0.01 M HEPES pH 7.4, 0.15 M NaCl, 3 mM EDTA, and 0.005% v/v Surfactant Tween-20 (HBST running buffer). Different concentrations of human IL-33, mouse IL-33 or MfIL-33-6His prepared in HBST running buffer (ranging from 60 nM to 27.4 pM, 3-fold dilutions, for Trap proteins and ranging from 60 nM to 0.25 nM, 3-fold dilutions, for ST2 receptor proteins) were injected over the captured IL-33 Trap and receptor protein surfaces at a flow rate of 50 μL/minute. Association of different IL-33 proteins to the different capture surfaces was monitored for 7 minutes for Trap proteins or 4 minutes for ST2 receptor proteins and their dissociation in HBST running buffer was monitored for 14 minutes for Trap proteins or 8 minutes for ST2 receptor proteins. Kinetic association (ka) and dissociation (kd) rate constants were determined by fitting the real-time binding sensorgrams to a 1:1 binding model using Scrubber 2.0c curve-fitting software. Binding dissociation equilibrium constants (KD) and dissociative half-lives (t½) were calculated from the kinetic rate constants as: […]
On the technique in general: SPR reads the build-up and loss of mass on a sensor chip optically.

In assay [2] the target is T1, human IL-33 (R&D Systems, # …). The assay can be described thus: competition ELISA; antagonist pre-mixed with 20 pM biotin-hIL-33, binding to plate-coated human ST2-Fc; highest concentration tested. Here is the method: The ability of exemplary IL-33 antagonists of the invention to block human IL-33 (hIL-33) binding to the human ST2 receptor was measured using a competition sandwich ELISA. A portion of human ST2 protein ecto domain that was expressed with a C-terminal mouse Fc tag (SEQ ID NO:2) was coated at a concentration of 1 μg/mL in PBS buffer on a 96-well microtiter plate overnight at 4° C. […] Biotinylated hIL-33 protein (R&D systems, #3625-IL/CF) (biot-hIL-33) was added to achieve a constant final concentration of 20 pM to serial dilutions of IL-33 antagonists ranging from 0 to 100 nM. The mixture was incubated for 1 hour at room temperature (RT) before transfer to the hST2-hFc coated microtiter plates. After incubation for 1 hour at RT, the wells were then washed, and plate-bound biot-hIL-33 was detected with HRP-conjugated streptavidin (Thermo Scientific, # N200). All samples were developed with a TMB solution (BD biosciences, # 51-2607KC) to produce a colorimetric reaction and then quenched by acidification with 1M sulfuric acid before measuring absorbance at 450 nm on a Victor X5 plate reader (PerkinElmer). Data analysis was performed using a sigmoidal dose-response model within Prism™ software. […] Maximum blocking values represent the ability of the antagonists to block IL-33 binding relative to baseline. The absorbance measured at the constant amount of hIL-33 on the dose curve was defined as 0% blocking and the absorbance with no added IL-33 was defined as 100% blocking. The absorbance values of the wells containing the highest concentration tested for each antagonist were used to determine the maximum blocking percent.
A general note: An ELISA detects its analyte on a solid surface through an enzyme-linked reagent.

In assay [3] the target is T2, mouse IL-33 (R&D Systems, # 3626-ML-010/CF) (mouse, UniProt Q8BVZ5 109-266).
T2 construct: Commercial protein; also called mIL-33; mIL33
T2 sequence (looked up): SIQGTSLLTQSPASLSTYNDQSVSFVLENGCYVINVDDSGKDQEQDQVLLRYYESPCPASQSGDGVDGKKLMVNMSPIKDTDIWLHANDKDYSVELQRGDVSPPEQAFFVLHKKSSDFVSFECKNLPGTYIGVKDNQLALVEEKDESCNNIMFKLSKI
The assay can be described thus: SPR (Biacore T-200), 25 C; Fc fusion captured by anti-Fc antibody, mouse IL-33 injected. The protocol:
as §1

The target of assay [4] is T1, human IL-33 (R&D Systems, # …). The experiment in a line: cell-based or functional assay.
For assay [5], the target named is T3, monkey IL-33 expressed with C-terminal hexahistidine tag (MfIL-33-6His) (cynomolgus monkey (M. fascicularis)).
T3 construct: also called M. fascicularis IL-33-6His; cynomolgus monkey IL-33
T3 chain: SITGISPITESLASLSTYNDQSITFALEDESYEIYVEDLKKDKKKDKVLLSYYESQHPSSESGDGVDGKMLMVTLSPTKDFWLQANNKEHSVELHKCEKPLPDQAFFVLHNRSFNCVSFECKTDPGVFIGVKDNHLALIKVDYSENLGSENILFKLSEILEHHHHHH
The experiment in a line: SPR (Biacore T-200), 37 C; Fc fusion captured by anti-Fc antibody, MfIL-33-6His injected. Here is the method:
as §1

B1: hST2-hIL1RAcP-mFc (Fc fusion)
chain: KFSKQSWGLENEALIVRCPRQGKPSYTVDWYYSQTNKSIPTQERNRVFASGQLLKFLPAAVADSGIYTCIVRSPTFNRTGYANVTIYKKQSDCNVPDYLMYSTVSGSEKNSKIYCPTIDLYNWTAPLEWFKNCQALQGSRYRAHKSFLVIDNVMTEDAGDYTCKFIHNENGANYSVTATRSFTVKDEQGFSLFPVIGAPAQNEIKEVEIGKNANLTCSACFGKGTQFLAAVLWQLNGTKITDFGEPRIQQEEGQNQSFSNGLACLDMVLRIADVKEEDLLLQYDCLALNLHGLRRHTVRLSRKNPIDHHSSERCDDWGLDTMRQIQVFEDEPARIKCPLFEHFLKFNYSTAHSAGLTLIWYWTRQDRDLEEPINFRLPENRISKEKDVLWFRPTLLNDTGNYTCMLRNTTYCSKVAFPLEVVQKDSCFNSPMKLPVHKLYIEYGIQRITCPNVDGYFPSSVKPTITWYMGCYKIQNFNNVIPEGMNLSFLIALISNNGNYTCVVTYPENGRTFHLTRTLTVKVVGSPKNAVPPVIHSPNDHVVYEKEPGEELLIPCTVYFSFLMDSRNEVWWTIDGKKPDDITIDVTINESISHSRTEDETRTQILSIKKVTSEDLKRSYVCHARSAKGEVAKAAKVKQKVPAPRYTVESGEPRGPTIKPCPPCKCPAPNLLGGPSVFIFPPKIKDVLMISLSPIVTCVVVDVSEDDPDVQISWFVNNVEVHTAQTQTHREDYNSTLRVVSALPIQHQDWMSGKEFKCKVNNKDLPAPIERTISKPKGSVRAPQVYVLPPPEEEMTKKQVTLTCMVTDFMPEDIYVEWTNNGKTELNYKNTEPVLDSDGSYFMYSKLRVEKKNWVERNSYSCSVVHEGLHNHHTTKSFSRTPGK
notes: also called third IL-33 antagonist; human IL-33 Trap
For the molecule B1, in assay [1], the “60 nM Human IL-33 Bound (RU)” value was 28 RU, the Kd was 0.00329 nM, the off-rate constant (koff) turned out to be 6.32e-05 s⁻¹ and the kon came to 1.92e+07 M⁻¹ s⁻¹. Further, the t1/2 in assay [1] turned out to be 3.05 h. Besides, the “% Maximum blocking” value in assay [2] worked out at 97%. Besides, in assay [3], the “60 nM Mouse IL-33 Bound (RU)” value was found to be 22 RU, binding was put at a Kd of 0.0192 nM, the koff was 8.97e-05 s⁻¹ and the kon turned out to be 4.67e+06 M⁻¹ s⁻¹. For the same molecule, the t1/2 in assay [3] turned out to be 2.15 h. In assay [4], the “IC50 (M), blocking of IL-33 induced IFN-gamma release from human PBMC, donor 634966” value was 2.13e-12 M; the “IC50 (M), blocking of IL-33 induced IFN-gamma release from human PBMC, donor 655681” value came out at 4.59e-11 M; the “IC50 (M), blocking of IL-33 induced IFN-gamma release from human PBMC, donor 655682” value turned out to be 3.97e-12 M; the “IC50 (M), blocking of IL-33 induced IFN-gamma release from human PBMC, donor 655684” value amounted to 6.79e-11 M. Moreover, in assay [4], the “IC50 (M), blocking of IL-33 induced IFN-gamma release from human PBMC, donor 698842” value is 7.39e-11 M; the “IC50 (M), blocking of IL-33 induced IFN-gamma release from human PBMC, donor 698843” value stood at 1.73e-11 M; the “IC50 (M), blocking of IL-33 induced IFN-gamma release from human PBMC, donor 727054” value came out at 3.34e-10 M; the “IC50 (M), blocking of IL-33 induced IFN-gamma release from human PBMC, donor 727055” value came to 1.23e-10 M. Further, in assay [5], the “60 nM Monkey IL-33 Bound (RU)” value was 27 RU, the Kd stood at 0.00329 nM, the koff worked out at 4.79e-05 s⁻¹ and the association rate constant (kon) came out at 1.45e+07 M⁻¹ s⁻¹. Also, in assay [5], the t1/2 was found to be 4.02 h.
